Changes are numbered by the printed parent chain.

This assay deals with SARS-COV-2 RBD extracellular domain expressed with a C-terminal mouse IgG2a (SARS-COV-2 RBD-mFc) (SARS-CoV-2). The assay is described as follows: SPR, captured mAb, RBD-mFc in solution, 37 C. A general note: SPR reads the build-up and loss of mass on a sensor chip optically.

B1: mAb10957 (antibody, V domains shown)
VH: EVQLVESGGGLVQPGGSLRLSCAASGVTVSSNYMSWVRQAPGKGLEWVSVIYSGGSTFYADSVKGRFTISRDNSKNTLFLQMNSLRIEDTAVYYCARDLGPYGMDVWGQGTTVTVSS
VL: DIQLTQSPSFLSASVGDRVTITCRASQGISSYLAWYQQKPGKAPKLLIYAASTLQSGVPSRFSGSGSGTQFILTISSLQPEDFATYYCQQLNSYPGFTFGPGTKVDIKR
Turning to B1, the Kd (as a rule, the concentration at which binding is half-saturated) came to 0.0463 nM and the t½ (commonly the time in which the quantity being followed falls by half) was determined as 2.68 h.

B2: mAb10971 (antibody, V domains shown)
VH: B1 VH with V12I, A60S, T68S, F79Y, I87A, G100Y, P101Y
VL: B1 VL with S31T, Q70E, I72T, N92D, F97L, P101G, D106E
As to B2, the Kd turned out to be 0.0397 nM; the off-rate constant (koff) (as a rule, a measure of how fast the partners let go of each other) came to 9.41e-05 s⁻¹; the kon (commonly the rate constant with which the complex forms) was found to be 2.37e+06 M⁻¹ s⁻¹; the “t½” value turned out to be 2.04 h.

B3: mAb10964 (antibody, V domains shown)
VH: QVQLQESGPGLVKPSETLSLTCTVSGGSINNYYWIWIRQPPGKGLEWIGYIYHSGSTNYNPSLKSRVTISVDTSKNQFSLKVSSVTAADTAVYYCANMVRGVYEDDYWGQGTLVTVSS
VL: DIQMTQSPSSLSASVGDRVTITCRASQSISNYLNWYQQKPGKAPKLLIFAASSLRSGVPSRFSGSGSGTDFTLTISSLHPEDFATYYCQQNYNTPLTFGPGTKVDIKR
On to B3, for which the “t½” value is 1.53 h.

B4: mAb10969 (antibody, V domains shown)
VH: QVQLVESGGGVVQPGRSLRLSCAASGFTFSSYAMHWVRQAPGKGLEWVAVISYDGSNKYYADSVKGRFTISRDNSKNTLYLQMNSLRAEDTAVYYCARDGRTITMVRGVIDDAFDIWGQGTMVTVSS
VL: not shown
In the case of B4, the affinity, expressed as Kd, was 0.174 nM and the “t½” value was 1.36 h.

B5: mAb10935 (antibody, V domains shown)
VH: EVQLVESGGGLVQPGGSLRLSCAASGFTVSSNYMSWVRQAPGKGLEWVSLIYSGGSTYYADSVKGRFTISRHNSKNTLYLQMNSLRSEDTAVYYCARVPLGDYYYGMDVWGQGTTVTVSS
VL: DIQMTQSPSSLSASVGDRVTITCQASQDINKYLNWYQQKPGKAPKLLIYDASNLETGVPSRFSGSGSGTDFTFTISSLQPEDIATYYCQQSDNLPLTFGGGTKVEIKR
Take B5: binding was characterised by a dissociation constant (Kd) of 0.0869 nM, the koff is 0.000494 s⁻¹, the kon stood at 5.68e+06 M⁻¹ s⁻¹ and the “t½” value worked out at 0.39 h.

B6: mAb10938 (antibody, V domains shown)
VH: EVQLVESGGGLVQPGGSLRLSCAVSGFTVSSNYMSWVRQAPGKGLEWVSLIYSGGSTFYADSVKGRFTISRHNSKNTLYLQMNSLRAEDTAVYYCAREGGYSYDYNYWGQGTLVTVSS
VL: B5 VL with N30R, K31N, S65I, S91Y, L96I, G100Q, K103R, V104L
On to B6, for which the Kd worked out at 0.173 nM and the “t½” value worked out at 2.94 h.

B7: mAb10967 (antibody, V domains shown)
VH: EVQLVESGGGLVQPGGSLRLSCAASGFTVSSNYMSWVRQAPGKGLEWVSVIYPGGSTFYADSVKGRFTISRDNSKNTLYLQMNSLRAEDTAVYYCARDQRDFAWGQGTLVTVSS
VL: B5 VL with N30S, K31N, S77G, S91Y, L96P, G100Q, K103R, V104L
For the molecule B7, the Kd turned out to be 0.0229 nM and the “t½” value is 5.78 h.

B8: mAb10954 (antibody, V domains shown)
VH: EVQLVESGGGLVQPGGSLRLSCAASGITVSSNYMSWVRQAPGKGLEWVSLIYSGGSTYYADSVKGRFTISRDNSKNTLYLQMNSLRVEDTAVYYCARDHGMAAAGYNYWGQGTLVTVSS
VL: B5 VL with S76N, I83F, Y87F, S91Y, L96P, T97A, G100Q
For B8, the Kd was determined as 0.0369 nM.

B9: mAb10955 (antibody, V domains shown)
VH: EVQLVESGGGLVQPGGSLRVSCAASGFTVSRNYMSWVRQAPGKGLEWVSVIYSGGSTFYADSVKGRFTISRDNSKNTLYLQMNSLRAEDTAIYYCARYIPRFDPWGQGTLVTVSS
VL: B5 VL with N30S, K31N, Y36F, K42R, S91Y, L96I, G100Q, K103R, V104L
Consider B9, for which the Kd was 0.202 nM and the “t½” value is 0.497 h.

B10: mAb10936 (antibody, V domains shown)
VH: QVQLVESGGGVVQPGRSLRLSCAASGFTFRNYGMHWVRQAPGKGLEWVSVIWYDGSNRYYADSVKGRFTISRDTSKNTLYLQMNSLRAEDTAVYYCARDPPITGTTGGDAFDIWGQGTMVTVSS
VL: not shown
Regarding B10, the Kd came out at 0.0177 nM, the koff worked out at 6.75e-05 s⁻¹, the kon amounted to 3.81e+06 M⁻¹ s⁻¹ and the “t½” value was determined as 2.85 h.

B11: mAb10984 (antibody, V domains shown)
VH: EVQLVESGGGLVQPGGSLRLSCAASGLTVNRNYMSWVRQAPGKGLEWVSLIYSGGSTYYADSVKGRFTISRDNSKNTLYLQMNSLRLEDTAVYYCARGELGIPYGMDVWGQGTTVTVSS
VL: QSVLTQPPSVSAAPGQKVTISCSGSSSNIGNNYVSWYQQLPGTAPKLLIYDNNKRPSGIPDRFSGSKSGTSATLGITGLQTGDEADYYCGTWDSSLSAGVFGGGTKLTVLG
With B11, binding was put at a Kd of 0.0404 nM and the “t½” value worked out at 2.3 h.

B12: mAb11002 (antibody, V domains shown)
VH: EVQLVESGGGLVQPGGSLRLSCAASGFTVSSNYMSWVRQAPGKGLEWVSVIYSGGSTFYADSVKGRFTISRHNSKNTLYLQMNSLRAEDTAVYYCAREGYGMDVWGQGTTVTVSS
VL: not shown
For B12, the affinity, expressed as Kd, was 32.6 nM and the “t½” value turned out to be 0.0117 h.

B13: mAb10939 (antibody, V domains shown)
VH: EVQLVESGGGLVQPGGSLRLSCAASGLTVSSNYMNWVRQVPGKGLEWVSVIYSGGSKFYVDSVKGRFTISRHNSKNTLYLQMNSLRPEDTAVYYCTRDAQYYGMDVWGQGTTVTVSS
VL: DIQMTQSPSSLSASVGDRVTITCRASQSISTYLHWYQQKPGEAPKLLIYAASSLQSGVPSRFSGSGSGTDFTLTISSLQPEDFATYYCQQSYSTPPEIFGQGTKLEIKR
For B13, binding was characterised by a dissociation constant (Kd) of 0.155 nM, the koff was found to be 0.000165 s⁻¹, the kon worked out at 1.06e+06 M⁻¹ s⁻¹ and the “t½” value turned out to be 1.17 h.

B14: mAb10956 (antibody, V domains shown)
VH: B1 VH with V27L, F79Y, I87A, G100I, P101K
VL: not shown
Take B14: binding was put at a Kd of 0.158 nM and the “t½” value was found to be 0.563 h.

B15: mAb10998 (antibody, V domains shown)
VH: EVQLVESGGGLVHPGGSLRLSCAASGLTVSSNYMSWVRQAPGKGLEWVSVIYSGGSTYYADSVKGRFTISRHNSKNTLFLQMNSLRAEDTAVYYCARDRPITGTTLDVWGQGTTVTVSS
VL: B13 VL with S12F, T31S, H34N, E42K, T85F, S91T, E97I, I98T, K104R
On to B15, for which binding was characterised by a dissociation constant (Kd) of 22.4 nM, the koff amounted to 0.0197 s⁻¹, the kon stood at 879000 M⁻¹ s⁻¹ and the “t½” value is 0.01 h.

B16: mAb10965 (antibody, V domains shown)
VH: EVQLVESGGGLIQPGGSLRLSCAASVFTVSYNYMSWVRQAPGKGLEWVSVIYSGGSTYYADSVKGRFTISRDNSKNTLYLQMNSLRAEDTAVYYCARALPGWGGSFEYFDYWGQGTLVTVSS
VL: not shown
Regarding B16, the Kd is 0.237 nM and the “t½” value amounted to 0.57 h.

B17: mAb10937 (antibody, V domains shown)
VH: QITLKESGPTLVKPTQTLTLTCTFSGFSLSTNVVGVGWIRQPPGKALEWLALIYWNDDKRYSPSLKSRLTITKDTSKNQVVLTMTNMDPVDTATYYCAHGPTGDYFDYWGQGTLVTVSS
VL: not shown
B17: the Kd is 0.0129 nM, the koff is 5.74e-05 s⁻¹, the kon was 4.47e+06 M⁻¹ s⁻¹ and the “t½” value was determined as 3.35 h.

B18: mAb10982 (antibody, V domains shown)
VH: EVQLVESGGGLVQPGGSLRLSCAASGLTVSSNYMSWVRQAPGKGLEWVSVIYSGGTTYYADSVKGRFTISRHNSKNTLSLQMNSLRAEDTAVYYCARGEGANYYGMDVWGQGTTVTVSS
VL: QSVLTQPPSVSGAPGQRVTISCTGSSSNIGTGYDVHWYQQLPGTAPKLLIYGNSNRPSGVPDRFSGSKSGTSASLAITGLQAEDEADYYCQSYDSSLSGYVVFGGGTKLTVLG
As for B18, the Kd amounted to 0.21 nM, the koff turned out to be 0.000258 s⁻¹, the kon is 1.23e+06 M⁻¹ s⁻¹ and the “t½” value amounted to 0.747 h.

B19: mAb10986 (antibody, V domains shown)
VH: EVQLVESGGGLVQPGGSLRLSCAASEFTVSSNYMSWVRQAPGKGLEWVSVIYSGGSTFYADSVKGRFTISRDNSKNTLYLQMNSLRAEDTAVYYCARALPYGDLHFDYWGQGTLVTVSS
VL: B18 VL with S54T, G99D, Y100S, V101Y, G105T, L109V
As to B19, the Kd is 0.0126 nM and the “t½” value amounted to 3.32 h.

B20: mAb10985 (antibody, V domains shown)
VH: EVQLVESGGGLVQPGRSLRLSCAASGFTFDDYAMHWVRQAPGKGLEWVSGISWNRGSIGYADSVKGRFTISRDNAKNSLYLQMSSLRAEDTALYYCAKDGERWDSVVVPSARNGMDVWGQGTTVTVSS
VL: B18 VL with T31A, Y100S, V101Y, G105T, L109V
Take B20: the dissociation constant Kd is 0.0401 nM and the “t½” value stood at 0.513 h.

B21: mAb10989 (antibody, V domains shown)
VH: QVQLVQSGAEVKKPGASVKVSCKASGYIFTGYYMHWVRQAPGQGLEWMGWINPNSGGANYAQKFQGRVTLTRDTSITTVYMELSRLRFDDTAVYYCARGSRYDWNQNNWFDPWGQGTLVTVSS
VL: QSALTQPASVSGSPGQSITISCTGTSSDVGTYNYVSWYQQHPGKAPKLMIFDVSNRPSGVSDRFSGSKSGNTASLTISGLQAEDEADYYCSSFTTSSTVVFGGGTKLTVLG
B21: the “t½” value came to 0.527 h.

B22: mAb10966 (antibody, V domains shown)
VH: EVQLVESGGGLVQPGGSLRLSCAASGLTVSSNYMSWVRQAPGKGLEWVSVIYSGGSTFYADSVKGRFTISRDNSKNTLYLQMNSLRPEDTAVYYCAREGRIAATGYGMDVWGQGTTVTVSS
VL: not shown
As to B22, the Kd worked out at 0.0405 nM and the “t½” value came out at 1.94 h.

Source of the values: patent US20240043504A1 (published 2024).
